Laboratory results published in the domain aggregation screens of Martell et al. (2025).

Assay: soluble fraction after stress (log2 fold change); higher = more stays soluble; pooled small domains, quantitative proteomics
Settings: stress: 75 degC
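Also: 20 min heating vs room temperature control held 20 min.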

| Sequence | soluble fraction (log2) |
| --- | --- |
| HMVAMYLRVGISNGRRYLSIVQGYRDQVTKKVRHNTVKSLGYLDDLEKHYPDPIAHFKAVVEEMNKKQALE | -2.04 |
| HMVANDQILNQYGISDREAEIIGLLIEGLSNQQIAKQLYISPNTVKTHIKNIYAKVGVNNRLQLFSLLK | -0.435 |
| HMVANLPFNYKVYAKKGKLYVVISYKDSNGKYKKKWIRTGLDEGTKKKEVNTVADQIAAEYYSSMRLE | -3.52 |
| HMVAQQINDFRSERDASTGTLKRPLFDTLRDVISSRAQAYVSATGKPVTVEDLDRIYQAVEAEAKQAL | 0.0174 |
| HMVDDELTARRRVNLRRIADELGGAAAVARKTQKSVQQISSMLNGTKSFGSKIARDIEPKLGLPLQSLDKE | 0.0147 |
| HMVDDRPVTGTTLIREWQGRAYEVIVQAGHFEFQGQRYQSLSAIAKVITGTVWNGWAFFGLR | -0.415 |
| HMVDDTGLPTVLISDGRLLERNLHRLHLDHTWLQRRLEENNIPSIQSLFLLTVDKQHQLYFLKK | -1.74 |
| HMVDGTPALTDLKKVSKPGRRHYTGSQEIPRVLNGLGISIVSTSKGIMTGAQARRQKVGGELLAFV | 0.0345 |
| HMVDIIMDLLEAVAQARPADAFIKSLHIQYQERGGLSKKQLQGLYGKAAKTAGIPPGKLATLEAIILKRP | -2.52 |
| HMVDITPDLIRTLLERFGEYGVTKEHIEARIQRHIESILPAQVVQLRKTYNSLKDGMSQPSDWFDI | -1.9 |
| HMVDLEINGRQTLQFVANKYGIPVEKLATDLNIPSDRFGEKLGRLRRQYAFTMNDVRKSILKNK | -0.588 |
| HMVDPELFIWVESSKEPVYHLAYKIELFVHSTDPQDDVPVHRWQVFVDAHNGNILDKFDEVR | -0.292 |
| HMVDPRWETPDENLAEQIKSVMPVMWVYDREAKSFVERPAIDFSFSIFERTTLYIYDKDGNEIGFAR | -0.0443 |
| HMVDQVDKDRFLEALTQLGGSAGNVRLRETLQWEEEVYVIIKDALVKSGTILTGRGRGGSVLLASA | -0.95 |
| HMVDSLTIGRRIRQLRTERGMTLEELAAAVGRAPSQLSMIENGRREPKLTLLQAIARALGSTLDALLE | -0.562 |
| HMVDVNLLKYYVMESGKSLTDVAAAIGVTPATLHRKMSGESDFYRKEMQDIASYLGLDRDTIDRIFF | -1.84 |
| HMVEDIVLTDAQIEFVKQQAKNGLSAFQISEMIWPEMSVKRFSKQHVAVLDFLREYEPAYVHDSE | 0.156 |
| HMVEELDVQFIKLTVQGDHPWKNKKIRELSIPWDLLFVLIIRGDKSIIPNGKTTIKDGDIVVVSAPEYRG | -1.12 |
| HMVEFLMESTNGMYGIVKEGSSYYVQKGINESSLDYIGGMFMKDKNRFSSYSTALKRLELISGQET | -0.419 |
| HMVEGMQFDRGYQSPYFVTNAEKMVAELDNPYILLVEKKISSMKELLPVLEPVAQQGKSLLIISEEVEG | 0.0546 |
| HMVEGTVKWFNDEKGFGFIEQEGGKDVFVHFSAINGSGRRTLHEGQRVTMEVTQGQKGPQAENVNP | 0.147 |
| HMVEIPEFKITTFVNTDNEQIAEFENGFTDKKAEITFNNTKYVFKEKLPDQDGIRTYVYEELHE | 0.141 |
| HMVELGMSQNEFIQKFGKPFNKEMAYTYDKHKRETLFYKEDLYRGSWFIVTTAFTFVDSKLVSQEIVREER | -3.36 |
| HMVENMDEFIGRVRRLVSDRLDLLKEASDDEIRETISQVVLELSREQFLTLNEKKTVLEGVFNSMR | -0.944 |

| Sequence | soluble fraction (log2) |
| --- | --- |
| HMVERLVVSPGAGVFAPNKAIANGTRISVGDVLGMVGEQEVRSLFDGVLQSFISVDGERLTAHQPVAWLRT | -0.587 |
| HMVEVPKVAGMSTAQGVSELEQKGFVVNRTESYDDTVPKGNIISQTPEGGTKVPSGSAVTIKISQGAE | -0.159 |
| HMVEVPNVIGMTKPELTQQFVNLKLDGSGEGDVVVQQSPSEGSKVKEGSTVRVYFG | 0.128 |
| HMVEVPNVSNLTLEQAENKLIQQGLQVKLEGQGEKVVAQIPQPGAVVNKKSTVILF | 0.258 |
| HMVFLPDEIFRLKVIKAGEGPEQGVGYLDDGTMVVIEGARDRIGDELEVRVTSTLQTNAGKMIFTKFE | -0.548 |
| HMVGEPEPIRYSRFLDEMKSGKLDSVVIQGDTILGVRKDKSQFKTVNPETDYSALIGALDKAGVGIEGRA | 0.132 |
| HMVGEYTVKKGDTLWKIAGQTLGSPLRYAEIYELNKDVIEEAALGRGKKNSSNGHWIFQGTVLKIPA | -0.188 |
| HMVGIAEAMKHIADEDYGDLSAIFKQIFSDTDGGRNFSDAIRTQMRSTDSSGLRKVLSTLIMSIEE | -0.651 |
| HMVGNEEALRAIVESIIAQNTTEVASFREGKEGLIGWFLGQVMRQTGGKADPKLARQILLELLKQ | -0.449 |
| HMVGNYYDILGVPETATQDAIKKAFRSLAQQHHPDKNPDDPGAEAMFKKVSEAYQVLSDPDKRQTYDASL | -0.00926 |
| HMVIDFYDPQTKVIHEIKKSSAKEEAHVWQVKYYIYLFEKEEIMGVKGVLEYPLLREIVSVNF | 0.19 |
| HMVINQRKLNLLSIYSSGSEKRAIILFPTGQTKFVKVGDTLDGGRVAAIGTSEIRYLKGGNNLVLRIPG | -2.64 |
| HMVINTRHTGFVVDDLERFINFYLGLGLKLISRKVESGEYIDKLVGLKGTKLEWAKLSLPDNSMIEILKYH | -0.508 |
| HMVIREVNDNPVSAEELRLGDRVKVLSLGQNGEIVTLPDEKGELTVQVGILKAKVNLDDIMLI | -0.177 |
| HMVISAKRMQDRRDSILDAAREAFARAGFEGTSIADIARRAGVSDGLVYRYFASKRDLLNAVLTA | -1.61 |
| HMVIVGGDVIVHYVDTEGKKISDDVVKSGNVGEDYSTDQKTILGYRFKEVQGNTSGKFTDKTQVVTYIYT | 0.649 |
| HMVKEVKVPDVEGLTTEEAIKELKKYGLAYTTKSEENTDIEEGKVIRTEPKKGSTKVKGSTVTIIESSG | 0.451 |
| HMVKFGERVKQLRLSAGMTQEQLAERIWVTKAAISNYELSERNPSPETIIKIAGVFGVTTDYLLGLED | -1.9 |
| HMVKIVWSKEGPYVGTRVRRYFSQGPVDGTVVMYAKPQKGDDVALWRISHDDGDEEDLEEQELRLAID | -1.06 |
| HMVKLQATPSQRKTLDELYVQLKKLEPTAKEDLSLLRRLENSHLVSKQEAQGLISKAIGRVGALAVEQQP | 0.0219 |
| HMVKNTIHVDLKGEVNKPGVYEVEEGTIVNDLITLANGFTKNAYQDNINLSKKLTDEMVIVVSKKGS | 0.476 |
| HMVKNVVIPDVSNKAPVDASNQLTDLGFEVVTEYKYIASDTIEEGKVVKTSPEIGSKRKYGQKITLYISSG | -1.23 |
| HMVKRAYGEYVNVKLTDADLSKLKADFPADWQERIERLSTYMASTGKTYKNHLATIRNWARRDAERVSA | 0.958 |
| HMVKVSVYPNPAVDRITISGEVKAYAVYDATGKVVMKDTDYRGGAIGVSHLPAGIYIVRTDAGAVTVNK | -0.595 |

| Sequence | soluble fraction (log2) |
| --- | --- |
| HMVLSVRDRMVQILDQVKTGEYKRIEDFFSADEGRTGFVVSFVAILELVKGGLLTITQSKNLAPIYVRLPN | -0.0123 |
| HMVLVEEYDTKDSASTFKIGYYARYNTKYGTPSKVGSYADNQRSGIWTFYTDSLKTYFKYNYSTGLIL | 0.0292 |
| HMVLVGERRQKILEVVSSGKAVTVEELSRILHVSPSTVRRDLRFLESRGLLYRTHGGAMPPV | -1.95 |
| HMVLVKFEWTPPDARILVDDHPVEARDKEMELPEGTHHVQALAPRGSGYESTVTDIEVRQGMDPVRIAL | -0.292 |
| HMVMRHTVEHDAELLAVLRLMYPASSSTKLRKMLTQGRVLVNDDVVHRAKHGVASGDTVDVIVRQRAE | -2.21 |
| HMVNFKLIGNKIAEARKKVNISQAQLAQRLFISSQAVGKWERGESMPDIITFNRLAEILGVDLNYFSE | -2.53 |
| HMVNPDAPAPLYIVNGKETDKNIALAIKPEDVQDVRIIKNTVALQVYGEKGKNGVVIINTKPGV | 0.132 |
| HMVNSADLAAKPFIDLLVSTRQQLREAKQYDLADTIRDELTNHGITIEDKPQGSEWQYEFNPNS | 0.0875 |
| HMVNTYILNNKEYPIEIIRKNNKNTYLRVKEGKIIVTTNYLTSSFTINKLIKDNTSFINKALLKEN | -0.71 |
| HMVNYKEILRLAHEGYSQRQIATNIGNSRNTVSEVLDAAKAANIAWPPEETVTNEQLGAILFPNRH | 0.349 |
| HMVNYKEILRLSAEGNSQRQIAAGSGNSRNTVIEVLEAARARGITWPLDEPVTNEQLEAILFPNRY | -0.072 |
| HMVPEETKQFINQLNHGSLSIRMNAANNLEKLGLLAIPEIEAALPKAHGEAAFRLPRLLHALVLRETEYF | 0.185 |
| HMVPEMIRDVISKSIRDMGVLPDHMQINERIALIQSLKKQQILGIKGAVAETARQLGISVPTVYRYMKKG | -0.946 |
| HMVPFISVTPTSLSFAKGGESKTVDIEASGAFSVGKVPTGFNLEVVNGRITITADANTGAARNGSVEFILA | 0.222 |
| HMVPHTTSMVAEVQERLFNLNYDPGPINGRMDQATITAITRFQRNFSLPQTGQIDEGFLNTLRDARL | -0.73 |
| HMVPLGDLSKNERRAMELAATNGNVTTRALADDAQVTKRTASTTLRRLAKRGLLEWIGKGPSDPGQFYRIP | -0.351 |
| HMVPLTPGELVGTEVRVLWWKEGRGEVIASSRGHQLTLEAHSEDPLRAGSTAVVLEAADDVLVVTS | -0.734 |
| HMVPPELEFLQSLMKIEDISELTAAIENNRDAVTDDFKEMLETVIENISGAPDTDPKLLERLKTIRTVLA | -0.0936 |
| HMVPPVVRTIYGAGGKMTATFLFPGGYEVDAASGAELPGKYRVESISLDQVVLTDKDGNRVPVGFSSVAPT | 0.149 |
| HMVPQEVLPITLIIDGKLIEENLLYAKMTEQVLIQQLDINNIKSIKQILFAGLDSFGNFFYQEKQN | -2.5 |
| HMVPTATVGENTSTLPVRQLPGGPVLVVLVRGDIVLPLPGHAFQNGDVWREISTVNGVIGWVPDEFLDY | -2.25 |
| HMVPTVSVDRDDTLRFEGRPVDWDVLKRELGAVAGIDELKIYADAKVSALTVSKIMKSASEAGVLQFILVT | -0.0735 |
